B1: peptide SEQ ID No 199 … (peptide)
peptide: RYAEEVGIF
B2: peptide SEQ ID No 200 … (peptide)
peptide: YYGPSLFLL
B3: peptide SEQ ID No 201 … (peptide)
peptide: IYATEAHVF
B4: peptide SEQ ID No 202 … (peptide)
peptide: VYWDSAGAAHF
B5: peptide SEQ ID No 204 … (peptide)
peptide: TYELRYFQI
B6: peptide SEQ ID No 207 … (peptide)
peptide: AYVVFVSTL
B7: peptide SEQ ID No 209 … (peptide)
peptide: TYKDEGNDYF
B8: peptide SEQ ID No 218 … (peptide)
peptide: YYKSTSSAF
B9: peptide SEQ ID No 222 … (peptide)
peptide: TFSVSSHLF
B10: peptide SEQ ID No 268 … (peptide)
peptide: QYLGQIQHI
B11: peptide SEQ ID No 269 … (peptide)
peptide: YFIDSTNLKTHF
B12: peptide SEQ ID No 270 … (peptide)
peptide: NYYEVHKELF
B13: peptide SEQ ID No 277 … (peptide)
peptide: VYQGHTALL
B14: peptide SEQ ID No 281 … (peptide)
peptide: PYRLIFEKF
B15: peptide SEQ ID No 285 … (peptide)
peptide: HYPPVQVLF
B16: peptide SEQ ID No 287 … (peptide)
peptide: LYITEPKTI

Each binder was assayed against HLA-A*24 (human) (assay: UV-ligand exchange, anti-b2m ELISA).

B1 and B2 fall in the same range of peptide exchange yield: 50 to 75% for the first, 50 to 75% for the second.

First: B3
Second: B4
The peptide exchange yield of the first is lower: 50 to 75% for the first, over 75% for the second.

First: B5
Second: B6
The peptide exchange yield of the first is higher: over 75% for the first, 20 to 49% for the second.

B7 and B8 fall in the same range of peptide exchange yield: 50 to 75% for the first, 50 to 75% for the second.

B9 and B10 fall in the same range of peptide exchange yield: 50 to 75% for the first, 50 to 75% for the second.

B11 and B12 fall in the same range of peptide exchange yield: 50 to 75% for the first, 50 to 75% for the second.

First: B13
Second: B14
The peptide exchange yield of the first is higher: over 75% for the first, 20 to 49% for the second.

B15 and B16 fall in the same range of peptide exchange yield: 50 to 75% for the first, 50 to 75% for the second.

Source: patent publication US20170189510A1
